The record followed here is patent US20210198328A1, “MODULATED CAS-INHIBITORS” (Universität Heidelberg, priority 2017, published 2021).

Assay [1] addresses dCas9-3xRFP (Streptococcus pyogenes) (UniProt Q99ZW2). Nature of the assay: cell-based or functional assay.
In a further assay the target is dCas9-p300 (UniProt Q99ZW2). The assay can be described thus: cell-based or functional assay.

For “CASANOVA (Acr-LOV variant 4; delta N64/Q65/E66, LOV2 inserted, no GS-linkers)”, in assay [1], the telomere labeling in U2OS nuclei, dark: cells labeling negative turned out to be 60%; the telomere labeling in U2OS nuclei, dark: more than 15 dots in the nucleus was < 5%; the telomere labeling in U2OS nuclei, light: more than 15 dots in the nucleus is 40%; the telomere labeling in U2OS nuclei, light: nuclei labeling positive was 80%. Moreover, the IL1RN transcript levels by quantitative RT-PCR, light against dark with dCas9-p300 is < 10 fold.
